System: gelatin (0.1%, incorporated in a 10% Tris-glycine polyacrylamide gel as substrate)

Substance: human matrix metalloproteinase-8 (recombinant, secreted by A549 cells infected with AdMMP8)
- gelatin hydrolysis in zymogram gel: The gelatin hydrolysis visible in the zymogram gel

Reference: patent publication US20080107630
